Data: patent US20150275238A1, “GENETICALLY ENGINEERED MICROBES AND METHODS FOR CONVERTING ORGANIC ACIDS TO ALCOHOLS” (UNIVERSITY OF GEORGIA RESEARCH FOUNDATION, INC., priority 2014, published 2015)

Experiments:
[1] = substrate: CC=O; test: AdhA alcohol dehydrogenase enzyme assay, Michaelis-Menten kinetics in cell extracts of P. furiosus strain A; format: biochemical, Thermoanaerobacter strain X514; settings: other: recombinant AdhA in cell extracts of P. furiosus strain A, 50 mM Mops pH 7.5, 2 mM DTT, 70° C., nonlinear regression
Experimental: (§1) The protein content was determined using a standard Bradford assay. Whole-cell extracts and S100 were kept anoxic at all times, and enzyme activity assays were performed under reducing conditions in anoxic 50 mM Mops (pH 7.5) plus 2 mM DTT at 70° C. […] Vmax and Km values of AdhA were calculated using nonlinear regression (nls function) in R (R Development Core Team, 2013, Available at www.R-project.org/).

[2] = substrate: CCCC=O; test: as above; format: biochemical, Thermoanaerobacter strain X514; settings: other: recombinant AdhA in cell extracts of P. furiosus strain A, 50 mM Mops pH 7.5, 2 mM DTT, 70° C., nonlinear regression
Experimental: as §1

B1: T. X514 AdhA (Thermoanaerobacter ethanolicus) (protein)
chain: MWETKINPNKVFELRCKNTTYFGIGSIKKIKDILEVLKNKGINNVILVTGKGSYKASGAWDVVKPALETLGFKYSLYDKVGPNPTVDMIDEAAKIGRETGAKAVIGIGGGSPIDTAKSVAVLLEYTDKNARELYEQKFIPEKAAPIIAINLTHGTGTEVDRFAVATIPEKNYKPAIAYDCLYPMYAIDDPSLMTKLDKKQTIAVTIDALNHVTEAATTLVASPYSVLMAKETVRLIVRYLPAAVNDPENLVARYYLLYASALAGISFDNGLLHLTHALEHPLSAVKPEIAHGLGLGAILPAVVKAIYPSVAEVLAEVYSPIVPGLKGLPAEAEYVAKKVEEWLFKVGCTQKLSDFGFTKEDIPTLVRLAKTTPSLDGLLSNAPVEATEAVIAKIYEESF
Km [1]: 63 µM | Km [2]: 166 µM
